Entries after “also recorded” stand apart in the source; their conditions may differ. Starred links: 1 amine or outer side, 2 acyl side, 3 side chain; linkers in the order of their positions; H or OH if unused. Positions of bridges follow the written chain, without caps; N, C: chain ends. Non-standard residues stand in square brackets, D forms with d. No end group written: not given here. O2beY = O-(2-bromoethyl)-tyrosine (p-2beF), reacts with Cys to form a thioether, O=C([C@H](Cc1ccc(OCCBr)cc1)N[*:1])[*:2]; pCaaF = p-(2-chloroacetamido)-phenylalanine, O=C(CCl)Nc1ccc(C[C@H](N[*:1])C(=O)[*:2])cc1
What was measured:
[1] = molecular target: T1, integrin αvβ3 on MDA-MB-231 cells (Homo sapiens, UniProt P05106+P06756); assay: flow cytometry of MDA-MB-231 cells, integrin receptor labeling; assay type: cell-based; settings: for labeling of integrin receptors on MDA-MB-231 cells (in words): FITC anti-IgG1 Fc detection
T1 construct: known to express high levels of integrin αvβ3 on their surface; endogenous in cells; host or cells: MDA-MB-231
T1 sequence (P06756 31-889 limits assumed): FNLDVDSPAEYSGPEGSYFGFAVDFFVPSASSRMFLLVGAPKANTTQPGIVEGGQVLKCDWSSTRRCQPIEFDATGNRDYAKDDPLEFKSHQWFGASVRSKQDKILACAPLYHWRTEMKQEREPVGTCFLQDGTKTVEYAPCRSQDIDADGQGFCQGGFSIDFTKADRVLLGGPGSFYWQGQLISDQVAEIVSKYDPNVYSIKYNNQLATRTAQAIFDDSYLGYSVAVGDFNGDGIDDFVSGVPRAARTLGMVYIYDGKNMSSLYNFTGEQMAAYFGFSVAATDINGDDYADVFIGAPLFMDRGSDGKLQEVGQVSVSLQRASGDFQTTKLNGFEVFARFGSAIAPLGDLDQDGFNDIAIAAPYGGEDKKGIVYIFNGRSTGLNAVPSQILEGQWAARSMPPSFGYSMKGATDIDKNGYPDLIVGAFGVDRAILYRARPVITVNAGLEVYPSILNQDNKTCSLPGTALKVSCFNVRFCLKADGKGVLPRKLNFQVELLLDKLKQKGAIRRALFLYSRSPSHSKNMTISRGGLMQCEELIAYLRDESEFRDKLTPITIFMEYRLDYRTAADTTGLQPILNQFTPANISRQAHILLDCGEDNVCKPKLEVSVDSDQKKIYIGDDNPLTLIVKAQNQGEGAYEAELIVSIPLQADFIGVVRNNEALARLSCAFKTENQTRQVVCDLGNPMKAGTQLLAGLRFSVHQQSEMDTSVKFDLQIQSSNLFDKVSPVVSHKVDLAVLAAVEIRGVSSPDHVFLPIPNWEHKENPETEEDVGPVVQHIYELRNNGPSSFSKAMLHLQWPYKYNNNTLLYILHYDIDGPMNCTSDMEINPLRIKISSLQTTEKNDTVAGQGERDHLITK
T1 sequence (P06756 891-1048 partner limits assumed): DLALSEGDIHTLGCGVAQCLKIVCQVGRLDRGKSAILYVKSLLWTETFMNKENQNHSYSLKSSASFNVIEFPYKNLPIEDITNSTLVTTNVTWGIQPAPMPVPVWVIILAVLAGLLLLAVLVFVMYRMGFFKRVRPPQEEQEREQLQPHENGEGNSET
T1 sequence (P05106 27-788): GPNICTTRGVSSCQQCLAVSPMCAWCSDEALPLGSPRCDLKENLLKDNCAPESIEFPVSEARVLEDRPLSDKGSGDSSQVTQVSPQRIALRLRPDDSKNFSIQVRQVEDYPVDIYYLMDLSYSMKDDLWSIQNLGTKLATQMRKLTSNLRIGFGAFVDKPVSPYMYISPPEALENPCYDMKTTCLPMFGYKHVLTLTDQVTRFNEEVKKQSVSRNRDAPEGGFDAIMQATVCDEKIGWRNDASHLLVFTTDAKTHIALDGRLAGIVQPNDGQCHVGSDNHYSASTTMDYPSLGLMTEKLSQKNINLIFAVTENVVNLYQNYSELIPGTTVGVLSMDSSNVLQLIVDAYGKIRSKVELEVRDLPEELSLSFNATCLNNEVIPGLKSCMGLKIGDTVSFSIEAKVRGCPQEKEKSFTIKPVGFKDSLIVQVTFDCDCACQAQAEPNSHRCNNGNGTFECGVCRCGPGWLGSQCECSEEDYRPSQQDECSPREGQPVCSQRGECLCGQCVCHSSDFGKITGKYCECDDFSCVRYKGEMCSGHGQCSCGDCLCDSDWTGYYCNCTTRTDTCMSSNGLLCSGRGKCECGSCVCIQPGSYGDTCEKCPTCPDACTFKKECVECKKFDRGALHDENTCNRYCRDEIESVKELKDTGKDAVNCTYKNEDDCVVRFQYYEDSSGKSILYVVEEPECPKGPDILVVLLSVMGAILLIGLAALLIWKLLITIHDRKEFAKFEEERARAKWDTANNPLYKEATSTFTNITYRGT
Procedure: Flow Cytometry Analysis. Cell line MDA-MB-231 was grown in culture to reach confluency. When confluent, media was aspirated, cells were washed once with 1×DPBS (no calcium, no magnesium) (Gibco). Adherent cells were detached from the petri dish with 1 mL of accutase (Gibco) pre-warmed to 37° C., followed by incubated for 5 min at 37° C. Cells were spun down using centrifugation. Supernatant was removed and cells were washed three times with staining buffer (1×PBS with 0.5% BSA). Cells were resuspended in Eppendorf tubes in 100 μL PBS at a concentration of […]. Cyclopeptibodies or Human anti-PD-L1 antibody (1 μg) (R&D Systems, MAB10355) in staining buffer were then added to the tubes with a concentration of 1.5 μM in 200 μL. Eppendorf tubes were then placed on the platform shaker for gently shaking for 1 hour at room temperature. After 1 hour, cells were spun down using centrifugation, then supernatant was removed. After washing three times, cells were resuspended in 200 μL of Fluorescein (FITC) AffiniPure Goat Anti-Human IgG with working concentration of 30 μg/mL (Jackson ImmunoResearch, 109-095-098), incubated in the dark for 30 min at room temperature. Cells were washed as described above, then resuspended in 400 μL staining buffer. Then cells were analyzed on a BD FACS Accuri C6^+ using a filter of 533/30. The cells of interest were gated using Forward and Side scatter (FSC/SSC). 10,000 singlet events were collected for each specimen.
After purification as described in Example 2, these cyclopeptibodies were used to treat breast cancer cells (MDA-MB-231), which are known to express high levels of integrin αvβ3 on their surface. The cyclopeptibody treated cells were then analyzed by flow cytometry using a procedure similar to that described for the PD-L1-targeting cyclopeptibodies in Example 9.

[2] = molecular target: T2, PD-L1 receptor on MDA-MB-231 cells (Homo sapiens, UniProt Q9NZQ7); assay: flow cytometry of MDA-MB-231 cells, PD-L1 labeling with FITC anti-human IgG Fc; assay type: cell-based; settings: concentration not given at the place
T2 construct: known to express high levels of PD-L1 on their surface; endogenous in cells; host or cells: MDA-MB-231
T2 sequence (Q9NZQ7 19-290): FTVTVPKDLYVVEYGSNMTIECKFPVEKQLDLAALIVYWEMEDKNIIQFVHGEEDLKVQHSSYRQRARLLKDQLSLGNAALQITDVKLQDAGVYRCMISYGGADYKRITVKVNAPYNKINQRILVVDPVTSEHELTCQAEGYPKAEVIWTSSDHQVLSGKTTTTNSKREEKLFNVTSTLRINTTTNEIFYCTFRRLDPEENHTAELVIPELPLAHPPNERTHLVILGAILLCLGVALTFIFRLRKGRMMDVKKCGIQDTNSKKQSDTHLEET
Procedure: The cells were then incubated with fluorescein-conjugated anti-human IgG Fc antibody and analyzed by flow cytometry. The same experiment was carried out in parallel using commercially available anti-PD-L1 antibody as positive control and various negative controls.
Flow Cytometry Analysis. […] When confluent, media was aspirated, cells were washed once with 1×DPBS (no calcium, no magnesium) (Gibco). Adherent cells were detached from the petri dish with 1 mL of accutase (Gibco) pre-warmed to 37° C., followed by incubated for 5 min at 37° C. Cells were spun down using centrifugation. Supernatant was removed and cells were washed three times with staining buffer (1×PBS with 0.5% BSA). Cells were resuspended in Eppendorf tubes in 100 μL PBS at a concentration of 107cells per mL. […] Eppendorf tubes were then placed on the platform shaker for gently shaking for 1 hour at room temperature. After 1 hour, cells were spun down using centrifugation, then supernatant was removed. […] Cells were washed as described above, then resuspended in 400 μL staining buffer. […] The cells of interest were gated using Forward and Side scatter (FSC/SSC). 10,000 singlet events were collected for each specimen.

[3] = molecular target: T3, streptavidin (Streptomyces avidinii, UniProt P22629); assay: in vitro streptavidin binding assay (streptavidin-coated plates, anti-FLAG HRP detection)
T3 construct: purchased Sigma-Aldrich
T3 sequence (P22629 25-183): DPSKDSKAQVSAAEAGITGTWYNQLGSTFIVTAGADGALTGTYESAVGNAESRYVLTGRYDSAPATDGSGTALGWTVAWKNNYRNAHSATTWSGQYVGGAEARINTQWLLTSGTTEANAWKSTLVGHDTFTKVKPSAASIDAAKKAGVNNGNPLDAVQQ
Source text: To prepare a cyclopeptibody capable of binding the protein streptavidin, a cyclic streptavidin-binding peptide previously discovered via phage display (Owens et al, ACS Cent Sci. (2020); 6(3):368-381) was genetically fused to the Fc domain of human IgG1 via a spacer (Entry 1, Table 1). The resulting cyclopeptibody (called Strep-m3-Tras-Fc) was expressed, purified, and characterized as described in Example 4. This construct was confirmed to contain the cyclic peptide constrained via O2beY/Cys thioether (i/i-8) linkage, where ‘i’ indicates the position of the non-canonical amino acid O2beY (also refereed to herein as p-2beF). […]
Streptavidin Binding Assay. […] After washing three times with wash buffer, 100 μL of 2.2 mM o-phenylenediamine dihydrochloride, 4.2 mM urea hydrogen peroxide, 100 mM dibasic sodium phosphate, and 50 mM sodium citrate, pH 5.0, were added to each well, followed by measurement of the absorbance at 450 nm after 10-20 min using a Tecan Infinite 1000 plate reader. Equilibrium dissociation constants (Kp) were determined by fitting the dose-response curves to a 1:1 binding isotherm equation via nonlinear regression. using SigmaPlot. Mean values and standard deviations were calculated from experiments performed in triplicate.

[4] = molecular target: Sonic Hedgehog (Shh) (Homo sapiens, UniProt Q15465); assay: in vitro Shh binding assay (plate-immobilized Shh)
Procedure: Streptavidin Binding Assay. For the streptavidin binding assays, streptavidin-coated plates (Sigma-Aldrich) were used. For the Keap1, Shh and PD-L1 binding assay, target protein was immobilized on microtiter plates by incubating 100 μL of a 4 μM protein solution in PBS buffer overnight at 4° C., followed by decanting the protein solution and blocking with 0.5% bovine serum albumin in PBS for 2 h at room temperature. After washing (3×150 μL of PBS with 0.05% Tween-20), each well was incubated with 100 μL of purified FLAG-tagged cyclopeptibody at varying concentrations for 1 hour at room temperature. After washing three times with wash buffer, each well was incubated with 100 μL of 1:2500 dilution of HRP-conjugate mouse anti-FLAG polyclonal antibody (Sigma-Aldrich) for 1 hour at room temperature. After washing three times with wash buffer, 100 μL of 2.2 mM o-phenylenediamine dihydrochloride, 4.2 mM urea hydrogen peroxide, 100 mM dibasic sodium phosphate, and 50 mM sodium citrate, pH 5.0, were added to each well, followed by measurement of the absorbance at 450 nm after 10-20 min using a Tecan Infinite 1000 plate reader. Equilibrium dissociation constants (Kp) were determined by fitting the dose-response curves to a 1:1 binding isotherm equation via nonlinear regression. using SigmaPlot. Mean values and standard deviations were calculated from experiments performed in triplicate. […]

[5] = molecular target: T4, PD-1/PD-L1 interaction (Homo sapiens, UniProt Q9NZQ7); assay: PD-L1 competition assay with biotinylated PD-1; assay type: binding
T4 construct: poly-histidine (C); made in house; PD-1 co-expressed with BirA
T4 sequence (Q9NZQ7 19-238 limits assumed): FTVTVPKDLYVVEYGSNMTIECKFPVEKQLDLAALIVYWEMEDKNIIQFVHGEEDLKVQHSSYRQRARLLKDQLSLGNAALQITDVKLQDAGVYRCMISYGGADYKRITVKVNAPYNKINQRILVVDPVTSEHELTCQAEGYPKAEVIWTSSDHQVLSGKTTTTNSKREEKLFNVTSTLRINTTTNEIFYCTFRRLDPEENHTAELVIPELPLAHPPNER
Procedure: Next, we examined the ability of the cyclopeptibody cCLP003-Tras-Fc to inhibit the PD-1/PD-L1 interaction using a competition assay with recombinant biotinylated PD-1 (Bio-PD-1). Briefly, PD-L1 immobilized on a plate was incubated with Bio-PD-1 and varying concentrations of cCLP003-Tras-Fc or control Fc. The PD-L1-bound PD-1 was then quantified colorimetrically (OD450) using horseradish peroxidase (HRP)-conjugated streptavidin.
PD-L1 Competition Assay. PD-L1 was immobilized on microtiter plates as described above. followed by decanting the protein solution and blocking with 0.5% bovine serum albumin in PBS for 2 h at room temperature. After washing, each well was incubated with 100 μL of serial dilutions of cCLP003-Tras-Fc-His for 1 hour at room temperature. Biotinylated PD-1 (500 nM) was added and incubated for 1 h at room temperature. After washing, the bound PD-1 was quantified by means of HRP-conjugate Streptavidin and colorimetric assay as described above. The inhibitory constant (IC50) was determined by fitting the dose-response curves to a 4-parameter equation via nonlinear regression using SigmaPlot. Mean values and standard deviations were calculated from experiments performed in triplicate.

[6] = serum stability assay in human blood serum; assay type: in vitro ADME
Procedure: The proteolytic stability of cyclopeptibodies cCLP003-Tras-Fc and L2-m5-Tras-Fc were assessed by incubating these proteins in human blood serum, followed by measurement of the cyclopeptibody activity using an in vitro binding assay with plate-immobilized PD-L1 or Sh as described in Example 7 and 8, respectively.
Serum stability Assay. The human male serum (Sigma-Aldrich) was clarified by centrifugation at 14 000 rpm for 15 min. 50% serum was prepared in phosphate-buffered saline (pH 7.4), then incubated at 37° C. Cyclopeptiodies were dissolved in 30 μL of 50% serum at a final concentration of 1 μM, incubated at 37° C. Serum samples with diluted cyclopeptibodies were prepared in the same way described above over a time course of 30 h for cCLP003-Tras-Fc-His and 24 h for L2-m5-Tras-Fc-His, followed by incubated at 37° C. Intact cyclopeptibodies in serum were quantified using the binding assay described above. In the assay, immobilized PD-L1 or Shh was incubated with 100 μL of serum samples diluted with PBS (1:10 dilution for cCLP003-Tras-Fc-His, 1:100 dilution for L2-m5-Tras-Fc-His). Intact cyclopeptibody in each sample was detected with HRP-conjugate mouse anti-FLAG polyclonal antibody. The absolute concentration of intact cyclopeptibody in each serum sample was quantified using a calibration curve, which was generated from a binding assay in which immobilized PD-L1 or Shh was incubated with cyclopeptibody in serial dilution (0-100 nM for cCLP003-Tras-Fc-His; 0-10 nM for L2-m5-Tras-Fc-His), followed by detected with HRP-conjugate mouse anti-FLAG polyclonal antibody, absorbance at 450 nm was measured as a function of cyclopeptibody concentration.

With “FLAG-(GS)2-CRDRGDYZ-(Q)6-IEGR-(Fc)^1-H6 [RGD5R (pCmF)-Tras-Fc]” the “labeling of integrin receptors on MDA-MB-231 cells (in words)” value (from here on “labeling of integrin receptors”) ([1]; listed as cRGD5R (pCmF)-Tras-Fc) was “selective labeling of the integrin receptors” and the “receptor affinity and labeling efficiency compared to the corresponding cyclic peptides” value ([1]; MDA-MB-231 cells) was “superior receptor affinity and labeling efficiency”.

For “Fc domain: human IgG1 Fc domain alone, negative control [reference compound]”, the “staining / labeling of PD-L1 receptors on MDA-MB-231 cells (in words)” value (“staining / labeling of PD-L1 receptors” for short) [2] was “negligible non-specific interaction”, the “staining / labeling of PD-L1 receptors” value ([2]; listed as human IgG1 Fc domain) was “negligible staining” and the “labeling of integrin receptors” value [1] was “minimal or significantly reduced staining; also recorded: negligible non-specific interaction”. The “streptavidin binding (in words)” value [3] was “no binding”, the “Shh binding (in words)” value [4] was “no significant binding below 500 nM” and the “inhibition of PD-1/PD-L1 interaction (in words)” value [5] was “did not exhibit significant inhibitory activity”.

In the case of “FLAG-(GS)2-TLSWZEAMDMCTSS-(Q)6-(Fc)^1-H6 (DYKDDDDKGSGSTLSW[O2beY]EAMDMCTSSQQQQQQ-{Fc-H6}; thioether 17-23 (inferred)) [L2-m5-Tras-Fc]”, the “half-life in human blood serum, indicated” value ([6]; 50% serum, 37° C., readout Shh binding assay) is reported as 30 to 50 h and the “loss in activity in human blood serum” value ([6]; over 24 h, readout Shh binding assay) is reported as “no loss in activity”.

For “FLAG-(GS)2-WHFSZNWRWLPC-(Q)6-(Fc)^1-H6 (DYKDDDDKGSGSWHFS[pCaaF]NWRWLPCQQQQQQ; thioether 17-24 (inferred); not fully specified (C-terminus)) [cCLP003-Tras-Fc]”, the “half-life in human blood serum” value ([6]; 50% serum, 37° C., readout PD-L1 binding assay) was “over 24 hrs” and the “staining / labeling of PD-L1 receptors” value [2] was “selective labeling of PD-L1 receptors”.

In the case of “FLAG-(GS)2-CRDRGDYZ-(Q)6-IEGR-(Fc)^1-H6 (DYKDDDDKGSGSCRDRGDY[pCaaF]QQQQQQIEGR-{Fc-H6}; thioether 13-20 (inferred)) [RGD5R (pCaaF)-Tras-Fc]”, the “labeling of integrin receptors” value [1] is reported as “label the cells” and the “labeling of integrin receptors” value ([1]; listed as cRGD5R (pCaaF)-Tras-Fc) is reported as “selective labeling of the integrin receptors”.

From patent US20250197448A1, “CYCLOPEPTIBODIES AND USES THEREOF” (University of Rochester, priority 2022, published 2025)
